According to patent US20130089872A1 (LIVTECH, published 2013):

Key:
Table 9 peptide No. 14 = assay: PEPSCAN/CLIPS peptide ELISA, antibody 1 ug/mL
Table 9 peptide No. 26 = molecular target: T1, Table 9 peptide No. 26; assay: PEPSCAN/CLIPS peptide ELISA, antibody 1 ug/mL
T1 construct: CLIPS format (inferred); native Cys replaced by Ala as printed
T1 peptide: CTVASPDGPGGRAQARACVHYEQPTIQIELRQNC
Protocol: 5034 types of the synthesized peptides were covalently bound to PEPSCAN cards (455 peptides/card), and the binding of the synthesized peptides to antibodies was then analyzed by the ELISA method. […] After washing, the resultant was allowed to react with a 1000-fold diluted peroxidase-secondary antibody complex at 25° C. for 1 hour. After washing, a substrate solution (a solution containing 2,2′-azino-di-3-ethylbenzthiazoline sulfonate (ABTS) and 2 μL of 3% hydrogen peroxide solution) was added to the reaction solution, followed by a chromogenic reaction for 1 hour. The binding activity of the antibodies was quantified by photographing with a CCD camera and then performing an image analysis.

[1] = molecular target: T2, hmTROP-2-C chimeric protein (human; mouse, UniProt Q8BGV3 140-317); assay: FACS on HEK293 cells constantly expressing hmTROP-2-C
T2 construct: range 140-C-terminus; constitutively expressed on HEK293 cells; signal peptide 1-26 of hTROP-2 left out; also called human/mouse chimeric TROP-2-C; not shown: C-terminal myc/His tag from the vector
T2 sequence: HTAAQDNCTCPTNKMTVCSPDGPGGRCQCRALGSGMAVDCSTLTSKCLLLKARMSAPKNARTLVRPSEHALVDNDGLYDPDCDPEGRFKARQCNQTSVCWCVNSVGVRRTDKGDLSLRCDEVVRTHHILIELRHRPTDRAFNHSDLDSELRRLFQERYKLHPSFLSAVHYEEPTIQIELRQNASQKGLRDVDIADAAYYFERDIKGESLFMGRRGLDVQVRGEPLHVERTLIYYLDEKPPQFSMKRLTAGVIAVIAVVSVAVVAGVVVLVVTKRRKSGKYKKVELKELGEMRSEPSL

[2] = molecular target: T3, hmTROP-2-A chimeric protein (human; mouse, UniProt Q8BGV3 64-317); assay: FACS on HEK293 cells transiently expressing hmTROP-2-A
T3 construct: range 64-C-terminus; transiently expressed on HEK293 cells; also called human/mouse TROP-2-A; not shown: C-terminal myc/His tag from the vector
T3 sequence: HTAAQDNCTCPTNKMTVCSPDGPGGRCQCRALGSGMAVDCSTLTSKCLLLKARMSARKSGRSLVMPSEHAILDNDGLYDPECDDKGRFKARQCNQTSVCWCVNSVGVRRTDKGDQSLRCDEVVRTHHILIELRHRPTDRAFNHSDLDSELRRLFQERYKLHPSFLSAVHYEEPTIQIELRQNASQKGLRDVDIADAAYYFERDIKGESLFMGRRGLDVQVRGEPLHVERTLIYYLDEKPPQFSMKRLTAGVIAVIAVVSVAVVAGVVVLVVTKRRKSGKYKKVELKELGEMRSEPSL

mouse TROP-2 protein = molecular target: T4, mouse TROP-2 protein (mouse, UniProt Q8BGV3 25-317); assay: FACS on CHO-K1 cells transiently expressing mouse TROP-2
T4 construct: whole, on cells
T4 sequence (looked up): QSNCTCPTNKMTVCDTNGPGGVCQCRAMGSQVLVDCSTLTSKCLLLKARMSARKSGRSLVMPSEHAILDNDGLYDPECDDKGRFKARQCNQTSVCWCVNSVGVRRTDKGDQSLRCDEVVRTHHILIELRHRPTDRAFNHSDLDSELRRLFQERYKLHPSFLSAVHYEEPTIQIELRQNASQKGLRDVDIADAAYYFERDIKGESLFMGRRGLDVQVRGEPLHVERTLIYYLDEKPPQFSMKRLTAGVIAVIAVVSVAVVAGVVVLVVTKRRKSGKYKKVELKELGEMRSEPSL
Excerpt: (§1) Specifically, each of an expression vector (mouse TROP-2-pcDNA3.1(+), furnished by the Institute of Molecular and Cellular Biosciences, the University of Tokyo) comprising the full-length cDNA of a mouse TROP-2 gene (GenBank accession No. NM_{—}020047, Y08830), and an expression vector (pcDNA3.1-hEpCAM-myc/His) comprising the full-length cDNA of a human TROP-1/EpCAM gene (GenBank accession No. NM_{—}002354), was transiently introduced into CHO-K1 cells, using Lipofectamine2000 reagent (Invitrogen). Thereafter, 24 to 48 hours later, the cells were removed from a culture dish by treating them with trypsin, and a cell suspension was then prepared. The thus prepared cell suspension was successively reacted with the produced anti-hTROP-2 monoclonal antibody (0.1 μg) and with PE-labeled anti-mouse IgG, and it was then analyzed by FACSCalibur.

[3] = molecular target: T5, human TROP-2 (hTROP-2) protein (human, UniProt P09758 27-323); assay: FACS on PK-59 cells (endogenous hTROP-2), 0.1 ug antibody
T5 construct: also called Tacstd2; GA733-1
T5 sequence: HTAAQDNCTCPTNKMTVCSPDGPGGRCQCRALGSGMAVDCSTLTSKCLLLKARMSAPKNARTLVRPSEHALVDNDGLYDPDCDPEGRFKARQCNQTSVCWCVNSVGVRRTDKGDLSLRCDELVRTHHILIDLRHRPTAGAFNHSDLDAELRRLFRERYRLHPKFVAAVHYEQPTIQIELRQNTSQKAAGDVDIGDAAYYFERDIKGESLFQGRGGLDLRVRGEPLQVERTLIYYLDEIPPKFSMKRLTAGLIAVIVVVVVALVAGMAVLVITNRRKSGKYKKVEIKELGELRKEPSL
Protocol: (§2) Cancer cells were removed from a culture dish by a trypsin treatment, and a cell suspension was then prepared (cell density: 2×10⁶ cells/mL). An anti-hTROP-2 monoclonal antibody (0.1 μg) was added to 100 μL of the cell suspension, and they were then reacted at 4° C. for 20 minutes. The reaction solution was washed with PBS, and it was then reacted with PE-labeled anti-mouse IgG (BD Biosciences Pharmingen) (0.1 μg) (at 4° C. for 30 minutes). Thereafter, the resultant was analyzed by FACSCalibur (Becton, Dickinson and Company).

[4] = molecular target: T5, human TROP-2 (hTROP-2) protein; assay: FACS on BxPC-3 cells (endogenous hTROP-2), 0.1 ug antibody
Protocol: as §2

[5] = molecular target: T6, human TROP-1/EpCAM protein (human, UniProt P16422 24-314); assay: FACS on CHO-K1 cells transiently expressing human EpCAM/TROP-1
T6 construct: whole, on cells; vector adds a C-terminal myc/His tag; also called human EpCAM/TROP-1; hEpCAM
T6 sequence (looked up): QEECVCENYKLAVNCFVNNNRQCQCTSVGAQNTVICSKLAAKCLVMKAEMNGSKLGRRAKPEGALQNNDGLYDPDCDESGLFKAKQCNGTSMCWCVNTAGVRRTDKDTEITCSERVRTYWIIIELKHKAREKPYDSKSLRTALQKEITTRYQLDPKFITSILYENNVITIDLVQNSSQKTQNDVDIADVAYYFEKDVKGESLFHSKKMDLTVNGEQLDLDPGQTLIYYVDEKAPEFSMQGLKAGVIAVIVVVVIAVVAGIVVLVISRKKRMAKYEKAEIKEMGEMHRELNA
Excerpt: as §1

[6] = molecular target: T7, recombinant protein of the extracellular region of hTROP-2 (human, UniProt P09758 27-263); assay: equilibrium competition ELISA (Djavadi-Ohaniance method), recombinant hTROP-2
T7 construct: made with baculovirus, purified on Ni Sepharose; also called purified recombinant hTROP-2 protein; hTROP-2 EC; not shown: C-terminal myc/His tag from the pcDNA4/myc-His A vector
T7 sequence: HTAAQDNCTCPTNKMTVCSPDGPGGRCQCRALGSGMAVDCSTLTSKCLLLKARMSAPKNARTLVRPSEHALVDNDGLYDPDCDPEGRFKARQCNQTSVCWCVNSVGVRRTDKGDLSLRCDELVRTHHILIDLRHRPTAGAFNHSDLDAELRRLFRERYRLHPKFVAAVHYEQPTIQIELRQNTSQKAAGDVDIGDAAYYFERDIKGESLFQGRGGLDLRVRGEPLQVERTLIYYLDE
Protocol: The antigen binding affinity (Kd value) of the generated anti-hTROP-2 monoclonal antibody was calculated by a method using ELISA (Djavadi-Ohaniance L. et al (1996), In Antibody Engineering, Chapter 4, pp. 77-97. IRL Press, Oxford).
Specifically, the purified recombinant hTROP-2 protein (0.1 μg/mL) was added to a 96-well culture plate (Corning) so that the antigen was solid-phased (at room temperature for 1 hour, or at 4° C. overnight). Subsequently, the resultant was washed with PBS three times, and 2% skim milk (PBS solution) was then added thereto to block it (at room temperature for 1 hour). The resultant was washed with PBS twice. […] The reaction product was washed with PBS three times, and it was then reacted with HRP-labeled anti-mouse IgG (final concentration: 1 μg/mL) (GE Healthcare Biosciences) diluted with a blocking solution (at room temperature for 1 hour). Subsequently, the reaction product was washed with a 0.1% Tween20-PBS solution three times, and a TMB (3,3′,5,5′-tetramethylbenzidine: SIGMA) substrate solution was then added to the resultant to carry out a color reaction. Then, 1 M sulfuric acid was added to the reaction product to terminate the reaction. Using Microplate reader Model 550 (BIO RAD), absorbance was measured.

Table 7 peptide No. 16 = assay: PEPSCAN/CLIPS peptide ELISA, antibody 1 ug/mL
Table 7 peptide No. 19 = assay: PEPSCAN/CLIPS peptide ELISA, antibody 1 ug/mL

B1: anti-hTROP-2 monoclonal antibody clone K5-116-2-1 (antibody, V domains shown)
VH: QVQLQQPGAELVRPGASVKLSCKASGYTFTSYWITWVKQRPGQGLEWIGNIYPSDSYTNYNQKFRDKATLTVDKSSSTAYMQLSSPTSEDSAVYYCSALFDYWGQGTTLTVSS
VL: DILLTQSPAILSVSPGERVSFSCRASQSIGTSIHWYQQRTNGSPRLLIKYASESISGIPSRFSGSGSGTDFILSINSVESEDIADYYCQQSNSWPFTFGSGTKLEIK
notes: mouse IgG; also called hybridoma FERM BP-11253
B1 was tested, and the binding (PEPSCAN ELISA signal) (Table 9 peptide No. 14) was 1440, the “binding (PEPSCAN ELISA signal)” value (Table 9 peptide No. 26) was 1220 and the binding result [1] was “binds”. The binding result [2] was “binds”, the binding result (mouse TROP-2 protein) was “no binding (tested: 0.1 ug)” and the “mean fluorescence intensity relative to secondary antibody only” value [3] was 122 times. The “mean fluorescence intensity relative to secondary antibody only” value [4] was 121 times, the binding result [5] was “no binding (tested: 0.1 ug)” and the Kd [6] was 26.9 pM.

B2: anti-hTROP-2 monoclonal antibody clone K5-70 (antibody, V domains shown)
VH: QVQLQQPGAELVRPGASVKLSCKASGYTFTIYWINWVKQRPGQGLEWIGNIYPSDSYTNYNQKFKDKATLTVDKSSSTAYMQLSSPTSEDSAVYYCTRTSMADYWGQGTTLTVSS
VL: DILLTQSPAILSVSPGERVSFSCRASQSIGTSIHWYQQRTNGSPRLLIKYASESISGIPSRFSGSGSGTDFTLSINSVESEDIADYYCQQSNSWPFTFGSGTKLEIK
notes: mouse IgG2a purified from hybridoma ascites; also called K-70; hybridoma FERM BP-11251
With B2 the binding (PEPSCAN ELISA signal) (Table 7 peptide No. 16) was 538, the binding (PEPSCAN ELISA signal) (Table 7 peptide No. 19) was 519 and the binding result [1] was “binds”. B2: binds [2]; no binding (tested: 0.1 ug) (mouse TROP-2 protein); no binding (tested: 0.1 ug) [5]. The Kd [6] was 6.8 pM.

B3: anti-hTROP-2 monoclonal antibody clone T6-16 (antibody, V domains shown)
VH: EVQLQQSGPELVKPGASVKISCKASGYTFTDYNMHWVKQSHGKNLEWIGYIYPYNGGTGYNQRFKSRATMTVDKSSSTAYMELRSLTSDDSAVYYCAREDYGSSPSYAMDYWGQGTSVIVSS
VL: DVVMTQTPLSLPVSLGDQASISCRSSQSLVHGNGNTYLHWYLQKPGQSPKLLIYKVSNRFSGVPDRFSGSGSGTDFTLKISRVEAEDLGVYFCSQTTHVPTFGSGTKLEIK
notes: mouse IgG2a purified from hybridoma ascites; also called 16-16; hybridoma FERM BP-11346
B3: no binding [1]; no binding (tested: 0.1 ug) (mouse TROP-2 protein); no binding (tested: 0.1 ug) [5]. The Kd [6] was 4.3 pM.

B4: anti-hTROP-2 monoclonal antibody clone K5-107 (antibody, V domains shown)
VH: QVQLQQPGSELVRPGASVKLSCKASGYTFTSYWMHWVKQRHGQGLEWIGNIYPGGGYTNYDEKFKSKGTLTVDTSSSTAYMHLSSLTSEDSAVYYCTRSSVFDYWGQGTTLTVSS
VL: DILLTQSPAILSVSPGERVSFSCRASQNIGTSIHWFQQRTNGSPRLLIKYASESISGIPSRFSGSGSGTDFTLSINSVESEDIADYYCQQSNSWPFTFGSGTKLEIK
notes: mouse IgG1 purified from hybridoma ascites; also called hybridoma FERM BP-11252
B4: no binding (tested: 0.1 ug) (mouse TROP-2 protein); no binding (tested: 0.1 ug) [5].
